According to patent US20240269278A1 (NANJING SHUNXIN PHARMACEUTICALS CO LTD OF CHIATAI TIANQING …, published 2024):
Residue numbers refer to the chain shown, from its start. Numbers in names are those of the source.

B1: Xi3F10 (antibody, human IgG4 S228P, kappa, V domains shown)
VH: EVQLQQSVAELMKPGASVKIYCKATGYTFSRYWIEWVKQRPGHGLEWIGEFIPGSDTTNFNEKFKGKATFTAEISSNTAYMQLSSLTSEDSAVYFCARGGLRRMDYWGQGTSVTVSS
VL: DIVMTQTPAIMSASPGEKVTMTCRASSSVSSTYLHWYQQKSGASPKLWIYTTSTLASGVPARFSGSGSGTSYSLTISSVEAEDAATYYCQQFSDSTWTFGGGTKLEIKR
notes: Chimeric: mouse VH on human IgG4 (S228P, EU) constant region, mouse VL on human kappa constant region; made in CHO cells; also called chimeric version of 3F10
B2: hz16E5-3.3 (antibody, human IgG4 S228P, kappa)
heavy: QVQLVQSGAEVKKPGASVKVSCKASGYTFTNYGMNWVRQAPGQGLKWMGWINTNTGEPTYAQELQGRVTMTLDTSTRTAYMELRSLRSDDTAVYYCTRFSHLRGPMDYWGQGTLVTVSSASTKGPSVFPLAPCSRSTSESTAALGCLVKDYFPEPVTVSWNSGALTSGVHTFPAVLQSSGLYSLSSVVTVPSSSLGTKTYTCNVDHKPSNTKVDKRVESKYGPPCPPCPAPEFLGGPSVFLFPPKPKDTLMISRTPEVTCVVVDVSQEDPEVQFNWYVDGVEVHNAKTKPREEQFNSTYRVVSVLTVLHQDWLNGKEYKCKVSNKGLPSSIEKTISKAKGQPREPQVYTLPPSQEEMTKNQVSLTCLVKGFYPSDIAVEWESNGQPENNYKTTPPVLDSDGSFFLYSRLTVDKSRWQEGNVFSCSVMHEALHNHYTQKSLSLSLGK
light: DAQMTQSPSSLSASVGDRVTITCRSSQSLVHSNGYTYLHWYQQKPGKAPKLLIYKVSNRFSGVPSRFSGSGSGTDFTLTISSLQPEDFATYYCSQSTHVPPTFGQGTKLEIKRTVAAPSVFIFPPSDEQLKSGTASVVCLLNNFYPREAKVQWKVDNALQSGNSQESVTEQDSKDSTYSLSSTLTLSKADYEKHKVYACEVTHQGLSSPVTKSFNRGEC
notes: Humanized 16E5, full-length heavy and light chains, made in CHO cells
B3: hz14A9-2.3 (antibody, human IgG4 S228P, kappa, V domains shown)
VH: QVQLVQSGAEVKKPGASVKVSCKVSGFNIEDDYIEWVRQAPGQGLEWMGRIDPANDKTKYAQKFQGRVTMTGDTSTNTVYMELSSLRSEDTAVYYCARPGLRRYYSMDYWGQGTLVTVSS
VL: DIQMTQSPSSLSASVGDRVTITCKASENVVSYVSWYQQKPGKAPKLLIYGASNRYTGVPSRFIGSGSSTDFTLTISSLQPEDFATYYCGQSYSYPLTFGQGTKLEIKR
B4: hz14A9-2.4 (antibody, human IgG4 S228P, kappa, V domains shown)
VH: B3 VH with A97T
VL: B3 VL
B5: Xi16E5 (antibody, human IgG4 S228P, kappa, V domains shown)
VH: EVQLQQSGPELKKPGETVKISCKASGYTFTNYGMNWVKQVPGKGLKWMGWINTNTGEPTYAEEFKGRFAFSLETSARTAFLQINNLKNEDTATYFCTRFSHLRGPMDYWGQGASVTVSS
VL: DAVMTQTPLSLPVSLGDQASISCRSSQSLVHSNGYTYLHWYLQKPGQSPKLLIYKVSNRFSGVPDRFSGSGSGTDFTLKISRLEAEDLGVYFCSQSTHVPPTFGGGTKLEIKR
notes: Chimeric: mouse VH on human IgG4 (S228P, EU) constant region, mouse VL on human kappa constant region; made in CHO cells; also called chimeric version of 16E5

Biological target: T1, human CD47 protein, His Tag (ACRObiosystems, Cat. No. CD7-H5227) (human, UniProt Q08722 19-139)
T1 construct: Bought protein; also called hCD47-His Tag protein; not shown: His tag
T1 sequence (Q08722 19-139 limits assumed): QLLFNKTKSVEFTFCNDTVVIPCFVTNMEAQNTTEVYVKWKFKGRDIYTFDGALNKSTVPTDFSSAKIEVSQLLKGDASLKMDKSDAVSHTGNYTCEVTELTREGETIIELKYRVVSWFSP
Test: Biacore SPR, antibody captured on CM5 chip, CD47-His protein, 25 C
Method: (§1) The equilibrium dissociation constants KD (in unit M) were obtained by measuring the binding kinetics of the human CD47 protein (human CD47 protein, His Tag; ACRObiosystems, Cat. No. CD7-H5227) and cynomolgus monkey CD47 protein (cynomolgus/rhesus macaque CD47 protein, His Tag; ACRObiosystems, Cat. No. CD7-C52H1) to anti-CD47 antibodies (chimeric or humanized) using Biacore. The Biacore analysis was performed at 25° C. and data were recorded at a rate of 1 Hz.
(§2) At the beginning of each cycle, the diluted test antibody (1.5 μg/mL) was injected onto the experimental flowcell and maintained for 1 min to be captured.

Kd [nM] | Binder
0.767 | B1
7.13 | B2
0.204 | B3
8.55 | B4
9.06 | B5

Biological target: T2, cynomolgus/rhesus macaque CD47 protein, His Tag (ACRObiosystems, Cat. No. CD7-C52H1) (cynomolgus monkey, UniProt A0A2K5X523 19-139)
T2 construct: Bought protein; also called Cynomolgus monkey CD47 protein; not shown: His tag
Test: as above
Method: as §1, §2

Kd [nM] | Binder
1.04 | B1
1.87 | B2
3.07 | B3
2 | B4
2.92 | B5
